Data as given in patent US20260199447A1 (US Dept. of Health and Human Services, published 2026).

Tests used:
CHIKV VLP = CHIKV VLP (chikungunya virus (CHIKV), UniProt Q8JUX5 810-1248; Q8JUX5 326-748)
[1] = target: T1, VEEV Env-pseudotyped lentiviral reporter virus (Venezuelan equine encephalitis virus …, UniProt P09592 813-1254; P09592 335-757); test: cell-based or functional assay
T1 sequence 1: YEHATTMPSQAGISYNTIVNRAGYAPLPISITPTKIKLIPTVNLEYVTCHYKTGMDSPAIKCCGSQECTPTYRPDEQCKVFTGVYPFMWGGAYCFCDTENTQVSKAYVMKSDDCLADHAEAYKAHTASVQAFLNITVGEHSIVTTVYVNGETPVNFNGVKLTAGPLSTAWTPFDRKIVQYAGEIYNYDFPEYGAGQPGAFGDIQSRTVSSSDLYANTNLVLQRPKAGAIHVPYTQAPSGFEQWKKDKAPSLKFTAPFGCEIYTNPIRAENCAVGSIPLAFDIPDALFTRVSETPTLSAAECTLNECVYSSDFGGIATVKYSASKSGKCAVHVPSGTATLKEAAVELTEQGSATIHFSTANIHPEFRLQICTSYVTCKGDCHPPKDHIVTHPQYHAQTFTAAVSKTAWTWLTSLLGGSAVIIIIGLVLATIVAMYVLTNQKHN
T1 sequence 2: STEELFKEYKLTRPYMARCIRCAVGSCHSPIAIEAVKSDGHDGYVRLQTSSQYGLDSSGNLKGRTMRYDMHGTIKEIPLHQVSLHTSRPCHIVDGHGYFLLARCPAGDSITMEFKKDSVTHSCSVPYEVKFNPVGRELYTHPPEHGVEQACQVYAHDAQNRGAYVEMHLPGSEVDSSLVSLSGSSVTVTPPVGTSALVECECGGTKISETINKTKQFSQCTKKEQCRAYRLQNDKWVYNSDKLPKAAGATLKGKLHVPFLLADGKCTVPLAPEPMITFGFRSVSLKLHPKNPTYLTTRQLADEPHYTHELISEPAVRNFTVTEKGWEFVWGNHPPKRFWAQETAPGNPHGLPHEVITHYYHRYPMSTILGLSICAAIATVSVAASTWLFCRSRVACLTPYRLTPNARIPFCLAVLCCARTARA

[2] = target: T2, EEEV Env-pseudotyped lentiviral reporter virus (Eastern equine encephalitis virus (EEEV), UniProt P08768 799-1239; P08768 323-742); test: cell-based or functional assay
T2 sequence 1: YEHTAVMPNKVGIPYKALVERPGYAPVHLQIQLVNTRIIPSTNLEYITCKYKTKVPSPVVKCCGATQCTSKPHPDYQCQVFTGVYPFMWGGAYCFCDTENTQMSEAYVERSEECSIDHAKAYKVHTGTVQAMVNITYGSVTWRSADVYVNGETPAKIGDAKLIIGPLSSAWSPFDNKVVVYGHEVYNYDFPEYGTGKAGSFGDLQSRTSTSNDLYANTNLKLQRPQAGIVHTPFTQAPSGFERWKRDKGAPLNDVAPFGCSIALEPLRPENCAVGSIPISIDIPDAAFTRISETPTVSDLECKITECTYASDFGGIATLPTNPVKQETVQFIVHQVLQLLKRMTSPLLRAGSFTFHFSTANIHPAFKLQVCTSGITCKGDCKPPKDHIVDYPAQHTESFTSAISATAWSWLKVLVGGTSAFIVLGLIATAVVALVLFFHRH
T2 sequence 2: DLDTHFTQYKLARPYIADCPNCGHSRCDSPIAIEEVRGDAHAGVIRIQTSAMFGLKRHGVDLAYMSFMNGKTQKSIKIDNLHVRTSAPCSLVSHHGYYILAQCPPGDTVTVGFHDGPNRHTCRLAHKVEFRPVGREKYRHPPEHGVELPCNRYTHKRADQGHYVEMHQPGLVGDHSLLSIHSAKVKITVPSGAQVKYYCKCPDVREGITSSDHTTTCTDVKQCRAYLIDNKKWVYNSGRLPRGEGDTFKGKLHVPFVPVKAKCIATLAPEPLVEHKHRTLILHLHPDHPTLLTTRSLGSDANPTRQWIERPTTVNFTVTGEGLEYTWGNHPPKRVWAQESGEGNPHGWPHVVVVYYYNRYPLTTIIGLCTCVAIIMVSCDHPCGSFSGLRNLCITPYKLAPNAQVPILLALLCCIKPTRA

[3] = target: T3, WEEV Env-pseudotyped lentiviral reporter virus (Western equine encephalitis virus (WEEV), UniProt P13897 798-1236; P13897 320-742); test: cell-based or functional assay
T3 sequence 1: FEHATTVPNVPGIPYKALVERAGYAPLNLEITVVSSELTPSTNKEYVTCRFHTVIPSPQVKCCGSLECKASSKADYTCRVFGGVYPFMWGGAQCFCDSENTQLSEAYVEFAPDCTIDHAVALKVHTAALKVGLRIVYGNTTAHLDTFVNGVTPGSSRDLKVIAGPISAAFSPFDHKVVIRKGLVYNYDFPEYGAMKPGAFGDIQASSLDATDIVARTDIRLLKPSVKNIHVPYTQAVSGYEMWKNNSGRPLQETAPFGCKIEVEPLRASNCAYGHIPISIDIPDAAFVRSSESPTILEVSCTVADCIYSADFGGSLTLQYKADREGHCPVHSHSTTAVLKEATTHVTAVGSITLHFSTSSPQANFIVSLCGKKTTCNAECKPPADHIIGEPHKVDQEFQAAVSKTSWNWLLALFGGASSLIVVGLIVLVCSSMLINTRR
T3 sequence 2: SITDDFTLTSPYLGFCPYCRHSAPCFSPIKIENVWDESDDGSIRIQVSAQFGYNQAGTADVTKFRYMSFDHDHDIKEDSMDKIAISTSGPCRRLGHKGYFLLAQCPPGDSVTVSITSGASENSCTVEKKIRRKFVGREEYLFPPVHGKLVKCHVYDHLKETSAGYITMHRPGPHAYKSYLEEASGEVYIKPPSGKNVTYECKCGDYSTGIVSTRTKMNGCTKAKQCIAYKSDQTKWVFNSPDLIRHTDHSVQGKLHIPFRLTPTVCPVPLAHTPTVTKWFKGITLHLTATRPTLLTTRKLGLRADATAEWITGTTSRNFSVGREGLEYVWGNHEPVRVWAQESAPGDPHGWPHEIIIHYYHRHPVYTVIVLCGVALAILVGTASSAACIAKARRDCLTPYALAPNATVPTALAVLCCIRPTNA

Chain of CHIKV VLP (Q8JUX5 810-1248 limits assumed, chain 1 of 2): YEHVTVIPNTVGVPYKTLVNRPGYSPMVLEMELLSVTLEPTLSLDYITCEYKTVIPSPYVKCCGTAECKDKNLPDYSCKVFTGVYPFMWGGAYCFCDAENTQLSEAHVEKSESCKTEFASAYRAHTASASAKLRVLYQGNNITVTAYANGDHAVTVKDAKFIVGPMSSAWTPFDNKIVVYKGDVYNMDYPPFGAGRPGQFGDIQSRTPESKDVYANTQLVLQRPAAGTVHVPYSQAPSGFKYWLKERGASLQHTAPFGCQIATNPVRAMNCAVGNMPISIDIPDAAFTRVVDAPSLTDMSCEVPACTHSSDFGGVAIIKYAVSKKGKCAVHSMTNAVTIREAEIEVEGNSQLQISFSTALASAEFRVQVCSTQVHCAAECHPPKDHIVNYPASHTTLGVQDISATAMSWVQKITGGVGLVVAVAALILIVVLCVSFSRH
Chain of CHIKV VLP (Q8JUX5 326-748 limits assumed, chain 2 of 2): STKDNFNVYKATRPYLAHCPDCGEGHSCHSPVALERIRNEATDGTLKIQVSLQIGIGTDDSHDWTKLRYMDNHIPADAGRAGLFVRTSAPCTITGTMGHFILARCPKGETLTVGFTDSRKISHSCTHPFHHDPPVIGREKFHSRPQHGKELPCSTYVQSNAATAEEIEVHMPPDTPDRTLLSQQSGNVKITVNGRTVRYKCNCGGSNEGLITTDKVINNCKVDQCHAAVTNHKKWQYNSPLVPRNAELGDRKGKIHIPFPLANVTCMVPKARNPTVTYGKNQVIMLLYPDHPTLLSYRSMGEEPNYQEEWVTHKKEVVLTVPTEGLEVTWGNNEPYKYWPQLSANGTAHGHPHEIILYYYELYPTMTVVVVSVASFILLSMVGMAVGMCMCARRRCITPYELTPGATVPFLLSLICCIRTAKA

B1: SKT05 (antibody, V domains shown)
VH: EVQLVESGAGLVQPGGSLRLSCAASGFTFSDSWMSWVRQSPGKGLEWVGRIKGKPDGETAAYAASVKGRFSISRDDSKNTLYLQMNSLKTEDTAVYYCTRDDRTSCRRGVCYAAFHSWGQGVLVTVSS
VL: DIQMTQSPSSLSASAGDRVTLTCRASQAISFYLAWYQQKPGKAPKRLIYDASELQGGVPSRFSGSGSGTDFTLSINSLQPEDSATYFCLQYDSPPFTFGPGTKVEIKR
EC50 (CHIKV VLP): 0.1 µg/mL | IC80, neutralization of Env-pseudotyped lentiviral reporter virus [1]: 0.06 µg/mL | IC80, neutralization of Env-pseudotyped lentiviral reporter virus [2]: 0.39 µg/mL | IC80, neutralization of Env-pseudotyped lentiviral reporter virus [3]: 0.07 µg/mL
